Data published in publication PMC10411625, “Rationally designed stapled peptides allosterically inhibit PTBP1–RNA-binding†” (Chemical Science, 2023).
Positions of bridges follow the written chain, without caps; N, C: chain ends. Non-standard residues stand in square brackets, D forms with d. No end group written: not given here. S5 = C=CCCC[C@](C)(N)C(=O)O

T1: PTBP1 RRM1 (single first RNA-recognition motif with the α3-helix) (human)
T1 chain: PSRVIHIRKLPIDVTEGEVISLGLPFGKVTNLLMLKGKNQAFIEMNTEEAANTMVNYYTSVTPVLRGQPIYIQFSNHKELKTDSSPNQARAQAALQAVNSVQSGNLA

B1: P-6F, FITC-labeled variant of P-6 (peptide)
chain: NQARAQAALQAVN
modifications: also: stitched hydrocarbon staple linking residues 145, 149 and 153, FITC label, place not given here

Key:
Conditions in all cases: both partners purified
[1] = biological target: PTBP1 RRM12–L151G mutant (human); assay: MST; microscale thermophoresis of P-6F with the PTBP1 constructs
[2] = biological target: T1, PTBP1 RRM1 (single first …); assay: as above
[3] = biological target: PTBP1 RRM12–L151G mutant (human); assay: fluorescence polarisation; direct binding: FITC-labelled P-6F titrated with the PTBP1 construct
[4] = biological target: T1, PTBP1 RRM1 (single first …); assay: as above
[5] = biological target: T2, PTBP1 RRM1 and 2 combined (RRM12) (human); assay: fluorescence polarisation; competitive: peptide varied against RRM12 and the FAM-labelled RNA-2 tracer; Ki from loss of RNA binding
T2 construct: Methods and construct limits are not in the main text (supplementary file)

Binder	Kd [1] [µM]	Kd [2] [µM]	Kd [3] [µM]	Kd [4] [µM]	Ki [5] [µM]
B1	44.5	98.1	20.4	18.6	–
NQ[S5]RAQ[S5]ALQAVN-NH2 (staple 3-7; also: staple alkene reduced) [P-2, i, i + 4 hydrocarbon-stapled peptide derived from the PTBP1 α3-helix]	–	–	–	–	11.6
